T1: EGF5+6
T1 construct: also called Hu DLL3 EGF5+6 on HEK293 cells
T1 membrane-anchored DLL3 subdomain construct: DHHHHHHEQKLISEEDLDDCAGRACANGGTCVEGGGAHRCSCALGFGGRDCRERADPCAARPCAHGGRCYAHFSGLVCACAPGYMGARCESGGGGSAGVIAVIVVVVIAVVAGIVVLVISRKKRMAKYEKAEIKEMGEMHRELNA

T2: EGF1+2
T2 construct: also called Hu DLL3 EGF1+2 on HEK293 cells
T2 membrane-anchored DLL3 subdomain construct: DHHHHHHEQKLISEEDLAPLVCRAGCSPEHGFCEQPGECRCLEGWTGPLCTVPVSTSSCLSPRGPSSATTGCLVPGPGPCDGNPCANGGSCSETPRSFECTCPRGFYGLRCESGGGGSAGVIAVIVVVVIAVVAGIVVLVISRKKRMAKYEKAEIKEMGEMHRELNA

T3: EGF6+MEMBRANE PROXIMAL PEPTIDE
T3 construct: also called Hu DLL3 EGF6+membrane proximal peptide on HEK293 cells
T3 membrane-anchored DLL3 subdomain construct: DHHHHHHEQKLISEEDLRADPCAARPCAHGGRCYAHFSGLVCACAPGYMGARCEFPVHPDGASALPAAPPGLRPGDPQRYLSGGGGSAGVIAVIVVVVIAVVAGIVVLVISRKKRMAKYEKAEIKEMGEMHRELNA

T4: EGF2+3
T4 construct: also called Hu DLL3 EGF2+3 on HEK293 cells
T4 membrane-anchored DLL3 subdomain construct: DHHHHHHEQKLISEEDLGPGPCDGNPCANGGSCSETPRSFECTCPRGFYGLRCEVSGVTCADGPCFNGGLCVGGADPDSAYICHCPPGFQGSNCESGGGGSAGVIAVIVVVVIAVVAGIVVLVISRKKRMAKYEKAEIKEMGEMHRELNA

T5: EGF4+5
T5 construct: also called Hu DLL3 EGF4+5 on HEK293 cells
T5 membrane-anchored DLL3 subdomain construct: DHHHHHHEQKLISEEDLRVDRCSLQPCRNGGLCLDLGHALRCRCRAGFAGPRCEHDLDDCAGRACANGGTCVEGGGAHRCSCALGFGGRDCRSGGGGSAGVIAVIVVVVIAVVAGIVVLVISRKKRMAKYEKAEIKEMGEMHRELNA

T6: EGF3+4
T6 construct: also called Hu DLL3 EGF3+4 on HEK293 cells
T6 membrane-anchored DLL3 subdomain construct: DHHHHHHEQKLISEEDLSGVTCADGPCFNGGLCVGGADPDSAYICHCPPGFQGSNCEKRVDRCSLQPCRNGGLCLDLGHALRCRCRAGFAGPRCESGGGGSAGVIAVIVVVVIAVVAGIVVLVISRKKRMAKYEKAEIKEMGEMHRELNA

T7: Human DLL3-His (human, UniProt Q9NYJ7 27-492)
T7 construct: also called huDLL3-His; hu DLL3
T7 sequence: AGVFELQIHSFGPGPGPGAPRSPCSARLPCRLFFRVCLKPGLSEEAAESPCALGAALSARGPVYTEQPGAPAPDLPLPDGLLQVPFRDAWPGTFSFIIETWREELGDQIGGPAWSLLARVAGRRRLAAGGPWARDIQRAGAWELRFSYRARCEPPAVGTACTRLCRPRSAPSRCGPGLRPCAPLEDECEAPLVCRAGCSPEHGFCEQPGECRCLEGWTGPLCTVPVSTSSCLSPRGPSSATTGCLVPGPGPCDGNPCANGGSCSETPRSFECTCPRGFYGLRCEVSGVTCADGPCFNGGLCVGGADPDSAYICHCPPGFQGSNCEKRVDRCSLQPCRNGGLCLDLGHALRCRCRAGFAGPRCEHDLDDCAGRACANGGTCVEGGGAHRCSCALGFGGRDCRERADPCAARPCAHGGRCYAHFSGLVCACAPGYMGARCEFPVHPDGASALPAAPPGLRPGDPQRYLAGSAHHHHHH

B1: DLL3#8/CD3#1 (bispecific antibody, human IgG1, kappa, lambda, L234A L235A)
chain 1: not shown
chain 2: EAVVTQEPSLTVSPGGTVTLTCRSSTGAVTTSNYANWVQEKPGQLPRGLIGGTNKRAPWVPARFSGSLLGGKAALTLSGAQPEDEAEYFCALWYSNLWVFGGGTKLTVLGQPKAAPSVTLFPPSSEELQANKATLVCLISDFYPGAVKVAWKADGSPVNTGVETTTPSKQSNNKYAASSYLSLTPEQWKSHRSYSCQVTHEGSTVEKTVAPAECSGGGGSEGKSSGSGSESKSTEGKSSGSGSESKSTGGGGSEVQLVESGGGLVQPGGSLKLSCAASGFTFNTYAMNWVRQAPGKGLEWVARIRSKYNNYATYYADSVKDRFTISRDDSKNTAYLQMNNLKTEDTAVYYCVRHGNFGNSYVSWFAYWGQGTLVTVSAASTKGPSVFPLAPSSKSTSGGTAALGCLVKDYFPEPVTVSWNSGALTSGVHTFPAVLQSSGLYSLSSVVTVPSSSLGTQTYICNVNHKPSNTKVDKRVEPKSCDKTHTCPPCPAPEAAGGPSVFLFPPKPKDTLMISRTPEVTCVVVDVSHEDPEVKFNWYVDGVEVHNAKTKPREEQYNSTYRVVSVLTVLHQDWLNGKEYKCKVSNKALPAPIEKTISKAKGQPREPQVYTLPPSREEMTKNQVSLSCAVKGFYPSDIAVEWESNGQPENNYKTTPPVLDSDGSFFLVSKLTVDKSRWQQGNVFSCSVMHEALHNRFTQKSLSLSPG
notes: Heterodimer of one DLL3 chain and one CD3 chain (scFab-Fc, knob-in-hole)
B2: DLL3#10/CD3#1 (bispecific antibody, human IgG1, kappa, lambda, L234A L235A)
chain 1: EIVLTQSPGTLSLSPGERATLSCRASQSLNSIFLAWYQQKPGQAPWLLIYGASSRATGIPDRFSGSGSGTDFTLTISRLEPEDFAVYFCQQYGGSMNTFGQGTKLEIKRTVAAPSVFIFPPSDEQLKSGTASVVCLLNNFYPREAKVQWKVDNALQSGNSQESVTEQDSKDSTYSLSSTLTLSKADYEKHKVYACEVTHQGLSSPVTKSFNRGECGGGGSEGKSSGSGSESKSTEGKSSGSGSESKSTGGGGSQVQLVQSGAEVKKPGASVKVSCKASGYTFTGYYMHWVRLAPGQGLEWMGWINPNSGGTIFAQRFQGRVTMTRDTSISTVYMDLNRLRSDDTAVYYCARDFGDTVGNAFDIWGQGTMVTVSSASTKGPSVFPLAPSSKSTSGGTAALGCLVKDYFPEPVTVSWNSGALTSGVHTFPAVLQSSGLYSLSSVVTVPSSSLGTQTYICNVNHKPSNTKVDKRVEPKSCDKTHTCPPCPAPEAAGGPSVFLFPPKPKDTLMISRTPEVTCVVVDVSHEDPEVKFNWYVDGVEVHNAKTKPREEQYNSTYRVVSVLTVLHQDWLNGKEYKCKVSNKALPAPIEKTISKAKGQPREPQVYTLPPSREEMTKNQVSLWCLVKGFYPSDIAVEWESNGQPENNYKTTPPVLDSDGSFFLYSKLTVDKSRWQQGNVFSCSVMHEALHNHYTQKSLSLSPG
chain 2: B1 chain 2
notes: as for B1
B3: DLL3#12/CD3#1 (bispecific antibody, human IgG1, kappa, lambda, L234A L235A)
chain 1: QVVLTQSPAIMSASPGEKVTITCSASSSVTYIHWFQQNPGTSPKLWIYRTSYLASGVPARFSGSGSGTSYSLTISRMEAEDAATYYCQQRSSYPRTFGGGTKLEIKRTVAAPSVFIFPPSDEQLKSGTASVVCLLNNFYPREAKVQWKVDNALQSGNSQESVTEQDSKDSTYSLSSTLTLSKADYEKHKVYACEVTHQGLSSPVTKSFNRGECGGGGSEGKSSGSGSESKSTEGKSSGSGSESKSTGGGGSQVQLQQPGAEFVQPGSSVKMSCKASGYAFSDYWITWVKQRPGQGLEWIGDIYPGSGSTKSSEKFKNRATLTADTSSSTAYIQFSSLTPEDSAVYYCVSLYYYGSYYLDTWGQGTTLTVSSASTKGPSVFPLAPSSKSTSGGTAALGCLVKDYFPEPVTVSWNSGALTSGVHTFPAVLQSSGLYSLSSVVTVPSSSLGTQTYICNVNHKPSNTKVDKRVEPKSCDKTHTCPPCPAPEAAGGPSVFLFPPKPKDTLMISRTPEVTCVVVDVSHEDPEVKFNWYVDGVEVHNAKTKPREEQYNSTYRVVSVLTVLHQDWLNGKEYKCKVSNKALPAPIEKTISKAKGQPREPQVYTLPPSREEMTKNQVSLWCLVKGFYPSDIAVEWESNGQPENNYKTTPPVLDSDGSFFLYSKLTVDKSRWQQGNVFSCSVMHEALHNHYTQKSLSLSPG
chain 2: B1 chain 2
notes: as for B1

Assays:
EGF5+6 = target: T1, EGF5+6; assay: flow cytometry on HEK293 cells expressing the DLL3 subdomain construct, PE anti-human secondary, control: secondary antibody only
Experimental: (§1) DLL3/CD3 binding proteins were produced by transient transfection of CHO-E cells with the pTT5 vectors carrying the chain-encoding genes, as described in Example 2. […] Bound molecules were detected with PE-conjugated anti-human secondary antibody (Sigma-Aldrich, #P8047). As negative control, cells were incubated with secondary antibody only.
(§2) The samples were measured by flow-cytometry. […] The sequences of the epitope domains are listed in Example 5, Table 3.

EGF1+2 [1] = target: T2, EGF1+2; assay: as above
Experimental: as §1, §2

[2] = target: T3, EGF6+MEMBRANE PROXIMAL PEPTIDE; assay: as above
Experimental: as §1, §2

EGF2+3 = target: T4, EGF2+3; assay: as above
Experimental: as §1, §2

Human CD3 E+G HuFc-6xHis = target: T8, Human CD3 E+G HuFc-6xHis (human); assay: SPR (ProteOn XPR36), HuCD3E_HuCD3G-Fc amine-coupled, bispecific as analyte, Example 4B
T8 construct: also called hu CD3εγ-Fc
T8 sequence (chain, as listed by the source limits assumed): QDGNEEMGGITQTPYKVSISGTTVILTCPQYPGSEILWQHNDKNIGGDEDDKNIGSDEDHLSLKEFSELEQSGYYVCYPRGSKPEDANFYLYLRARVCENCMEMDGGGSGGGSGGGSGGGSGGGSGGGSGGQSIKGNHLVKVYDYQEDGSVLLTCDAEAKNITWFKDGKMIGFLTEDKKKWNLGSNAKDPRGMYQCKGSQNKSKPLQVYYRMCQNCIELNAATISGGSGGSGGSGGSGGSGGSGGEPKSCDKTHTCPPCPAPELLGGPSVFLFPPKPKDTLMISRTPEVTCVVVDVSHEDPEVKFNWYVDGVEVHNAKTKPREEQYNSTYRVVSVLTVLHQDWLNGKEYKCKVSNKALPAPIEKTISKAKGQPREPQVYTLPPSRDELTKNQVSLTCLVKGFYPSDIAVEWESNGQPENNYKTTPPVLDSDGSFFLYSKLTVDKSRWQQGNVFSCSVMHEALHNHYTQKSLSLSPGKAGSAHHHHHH
Method in brief: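 Human CD3ε/γ-Fc fusion is amine-coupled to the chip at pH 4.5. Anti-DLL3/CD3 bispecifics are injected as analyte in PBS-T-EDTA at 30 μl/min, with 600 s association and 1800 s dissociation. Binding kinetics are measured by SPR.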

[3] = target: T9, trypsin inhibitor from glycine max soybean (Glycine max (soybean)); assay: SPR (Biacore T200), trypsin inhibitor on CM5 chip, sample at 1 µM
T9 construct: also called Tryp
T9 sequence (P01070 25-205): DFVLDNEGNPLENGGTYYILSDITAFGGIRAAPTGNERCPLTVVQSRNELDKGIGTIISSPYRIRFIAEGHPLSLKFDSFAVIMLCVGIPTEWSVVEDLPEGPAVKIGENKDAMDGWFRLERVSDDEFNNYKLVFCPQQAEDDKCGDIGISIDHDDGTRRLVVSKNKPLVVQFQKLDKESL
From the text: To prepare the surface for the non-specific binding experiment, chicken egg white lysozyme and trypsin inhibitor from glycine max soybean were coupled manually to a series S CM5 chip with the surface density of 3000-5000 RU using the amine coupling kit according to the manufacture instructions.

EGF4+5 [4] = target: T5, EGF4+5; assay: flow cytometry on HEK293 cells expressing the DLL3 subdomain construct, 1.6 nM binder, PE anti-human secondary, control: secondary antibody only
Experimental: as §1, §2

EGF3+4 = target: T6, EGF3+4; assay: flow cytometry on HEK293 cells expressing the DLL3 subdomain construct, PE anti-human secondary, control: secondary antibody only
Experimental: as §1, §2

EGF4+5 [5] = target: T5, EGF4+5; assay: as above
Experimental: as §1, §2

Human DLL3-His = target: T7, Human DLL3-His; assay: SPR (ProteOn XPR36), bispecific captured on protein A/G, hu DLL3 as analyte, Example 4B
Experimental: The binding affinity of purified DLL3/CD3 bispecific constructs for recombinant human DLL3-ECD and Fc-fusion protein of human CD3 εγ subunits was determined by Surface Plasmon Resonance (SPR), using a ProteOn XPR36 instrument (Bio-Rad).
For binding kinetic determination to DLL3, anti-DLL3/CD3 molecules were captured individually on the protein A/G surface vertically for 200 sec at a flowrate of 30 μl/min. The baseline was stabilized by injecting PBS-T-EDTA for 60 sec at a flowrate of 30 μl/min horizontally. The analyte (hu DLL3) was injected horizontally over the captured antibody for 300 sec at a flowrate of 30 μl/min and a dissociation for 1800 sec.

EGF1+2 [6] = target: T2, EGF1+2; assay: flow cytometry on HEK293 cells expressing the DLL3 subdomain construct, 1.6 nM binder, PE anti-human secondary, control: secondary antibody only
Experimental: as §1, §2

Binder	binding result (EGF5+6)	binding result (EGF1+2 [1])	binding result [2]	binding result (EGF2+3)	Kd (Human CD3 E+G HuFc-6xHis)	Non-specific binding (RU) [3]	binding result (EGF4+5 [4])	binding result (EGF3+4)	binding result (EGF4+5 [5])	Kd (Human DLL3-His)	binding result (EGF1+2 [6])
B1	no binding (tested: 1.6 nM)	no binding (tested: 1.6 nM)	no binding (tested: 1.6 nM)	no binding (tested: 1.6 nM)	2 nM	18 RU	binds	–	–	–	–
B2	no binding (tested: 1.6 nM)	–	no binding (tested: 1.6 nM)	no binding (tested: 1.6 nM)	–	12 RU	–	no binding (tested: 1.6 nM)	no binding (tested: 1.6 nM)	0.141 nM	binds
B3	no binding (tested: 1.6 nM)	–	no binding (tested: 1.6 nM)	no binding (tested: 1.6 nM)	2 nM	9 RU	–	no binding (tested: 1.6 nM)	no binding (tested: 1.6 nM)	< 0.02 nM	binds

From US20220251236A1 (Boehringer Ingelheim, published 2022)
